Assay results: article PMC8852700, “Distinct Serotypes of Streptococcal M Proteins Mediate Fibrinogen-Dependent Platelet Activation and Proinflammatory Effects” (Infection and Immunity, 2021)

T1: M1 protein (Streptococcus pyogenes, UniProt Q99XV0 1-484)
T1 sequence: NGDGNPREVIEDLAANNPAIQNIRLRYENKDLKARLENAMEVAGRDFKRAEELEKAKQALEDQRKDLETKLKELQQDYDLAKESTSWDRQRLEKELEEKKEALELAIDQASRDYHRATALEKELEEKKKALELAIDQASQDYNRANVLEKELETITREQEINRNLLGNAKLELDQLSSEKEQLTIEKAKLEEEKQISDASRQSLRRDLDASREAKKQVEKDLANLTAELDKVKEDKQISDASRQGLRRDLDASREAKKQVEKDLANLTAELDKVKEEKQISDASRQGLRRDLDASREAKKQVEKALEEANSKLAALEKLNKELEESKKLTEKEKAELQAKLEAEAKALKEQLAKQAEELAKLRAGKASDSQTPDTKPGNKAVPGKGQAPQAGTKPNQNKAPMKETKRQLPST

T2: M5 protein (Streptococcus pyogenes, UniProt P02977 43-461)
T2 sequence: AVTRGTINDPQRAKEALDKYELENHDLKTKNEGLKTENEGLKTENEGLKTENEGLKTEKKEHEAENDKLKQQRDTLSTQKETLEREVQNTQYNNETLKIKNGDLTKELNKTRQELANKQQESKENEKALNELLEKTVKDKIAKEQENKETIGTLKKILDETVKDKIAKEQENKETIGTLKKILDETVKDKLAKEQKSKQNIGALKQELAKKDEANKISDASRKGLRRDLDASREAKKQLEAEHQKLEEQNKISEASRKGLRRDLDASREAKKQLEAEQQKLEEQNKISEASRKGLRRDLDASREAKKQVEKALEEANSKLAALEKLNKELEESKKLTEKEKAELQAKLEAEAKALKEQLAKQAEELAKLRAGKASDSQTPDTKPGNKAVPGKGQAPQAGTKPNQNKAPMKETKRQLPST

B1: human fibrinogen (natural protein)
chain 1: GPRVVERHQSACKDSDWPFCSDEDWNYKCPSGCRMKGLIDEVNQDFTNRINKLKNSLFEYQKNNKDSHSLTTNIMEILRGDFSSANNRDNTYNRVSEDLRSRIEVLKRKVIEKVQHIQLLQKNVRAQLVDMKRLEVDIDIKIRSCRGSCSRALAREVDLKDYEDQQKQLEQVIAKDLLPSRDRQHLPLIKMKPVPDLVPGNFKSQLQKVPPEWKALTDMPQMRMELERPGGNEITRGGSTSYGTGSETESPRNPSSAGSWNSGSSGPGSTGNRNPGSSGTGGTATWKPGSSGPGSTGSWNSGSSGTGSTGNQNPGSPRPGSTGTWNPGSSERGSAGHWTSESSVSGSTGQWHSESGSFRPDSPGSGNARPNNPDWGTFEEVSGNVSPGTRREYHTEKLVTSKGDKELRTGKEKVTSGSTTTTRRSCSKTVTKTVIGPDGHKEVTKEVVTSEDGSDCPEAMDLGTLSGIGTLDGFRHRHPDEAAFFDTASTGKTFPGFFSPMLGEFVSETESRGSESGIFTNTKESSSHHPGIAEFPSRGKSSSYSKQFTSSTSYNRGDSTFESKSYKMADEAGSEADHEGTHSTKRGHAKSRPVRDCDDVLQTHPSGTQSGIFNIKLPGSSKIFSVYCDQETSLGGWLLIQQRMDGSLNFNRTWQDYKRGFGSLNDEGEGEFWLGNDYLHLLTQRGSVLRVELEDWAGNEAYAEYHFRVGSEAEGYALQVSSYEGTAGDALIEGSVEEGAEYTSHNNMQFSTFDRDADQWEENCAEVYGGGWWYNNCQAANLNGIYYPGGSYDPRNNSPYEIENGVVWVSFRGADYSLRAVRMKIRPLVTQ
chain 2: GHRPLDKKREEAPSLRPAPPPISGGGYRARPAKAAATQKKVERKAPDAGGCLHADPDLGVLCPTGCQLQEALLQQERPIRNSVDELNNNVEAVSQTSSSSFQYMYLLKDLWQKRQKQVKDNENVVNEYSSELEKHQLYIDETVNSNIPTNLRVLRSILENLRSKIQKLESDVSAQMEYCRTPCTVSCNIPVVSGKECEEIIRKGGETSEMYLIQPDSSVKPYRVYCDMNTENGGWTVIQNRQDGSVDFGRKWDPYKQGFGNVATNTDGKNYCGLPGEYWLGNDKISQLTRMGPTELLIEMEDWKGDKVKAHYGGFTVQNEANKYQISVNKYRGTAGNALMDGASQLMGENRTMTIHNGMFFSTYDRDNDGWLTSDPRKQCSKEDGGGWWYNRCHAANPNGRYYWGGQYTWDMAKHGTDDGVVWMNWKGSWYSMRKMSMKIRPFFPQQ
chain 3: YVATRDNCCILDERFGSYCPTTCGIADFLSTYQTKVDKDLQSLEDILHQVENKTSEVKQLIKAIQLTYNPDESSKPNMIDAATLKSRKMLEEIMKYEASILTHDSSIRYLQEIYNSNNQKIVNLKEKVAQLEAQCQEPCKDTVQIHDITGKDCQDIANKGAKQSGLYFIKPLKANQQFLVYCEIDGSGNGWTVFQKRLDGSVDFKKNWIQYKEGFGHLSPTGTTEFWLGNEKIHLISTQSAIPYALRVELEDWNGRTSTADYAMFKVGPEADKYRLTYAYFAGGDAGDAFDGFDFGDDPSDKFFTSHNGMQFSTWDNDNDKFEGNCAEQDGSGWWMNKCHAGHLNGVYYQGGTYSKASTPNGYDNGIIWATWKTRWYSMKKTTMKIIPFNRLTIGEGQQHHLGGAKQVRPEHPAETEYDSLYPEDDL

Columns and labels:
[1] = biological target: M3 protein (Streptococcus pyogenes) (UniProt Q54841)
[2] = biological target: M3 protein (Streptococcus pyogenes) (UniProt Q54841); remark: listed apart in the source
[3] = biological target: M3 protein (Streptococcus pyogenes) (UniProt Q54841); remark: listed apart in the source
[4] = biological target: T1, M1 protein; assay: cell-based or functional assay
[5] = biological target: T2, M5 protein; assay: cell-based or functional assay

Molecule	platelet activation: percentage of platelets positive for CD62P, flow cytometry of platelet-rich plasma, median of 10 donors (background 3%) [1] [%]	platelet-monocyte complex formation: percentage of monocytes positive for CD61, flow cytometry of whole blood, median of 10 donors (background 4%) [2] [%]	platelet-neutrophil complex formation: percentage of neutrophils positive for CD61, flow cytometry of whole blood, median of 10 donors (background 18%) [2] [%]	monocyte activation: fold increase of CD11b median fluorescence intensity above background, flow cytometry of whole blood, 10 donors [3] [fold]	neutrophil activation: fold increase of CD11b median fluorescence intensity above background, flow cytometry of whole blood, 10 donors [3] [fold]	monocyte activation: fold increase of CD11b median fluorescence intensity above background, flow cytometry of whole blood, 10 donors [4] [fold]	neutrophil activation: fold increase of CD11b median fluorescence intensity above background, flow cytometry of whole blood, 10 donors [4] [fold]	monocyte activation: fold increase of CD11b median fluorescence intensity above background, flow cytometry of whole blood, 10 donors [5] [fold]	neutrophil activation: fold increase of CD11b median fluorescence intensity above background, flow cytometry of whole blood, 10 donors [5] [fold]
human fibrinogen (from UniProt P02671 36-866; P02675 45-491; P02679 27-453) (natural protein)	55	17	53	3	5	–	–	–	–
B1	–	–	–	–	–	7	14	4	9
